Experimental data from US20230341395A1.

Biological target: Recombinant SARS-CoV-2 Spike protein antigen (Z03501, Genscript) (SARS-CoV-2) (UniProt P0DTC2)

Substance “Monoclonal antibody against the SARS-CoV-2 Spike protein (A02038, Genscript)” has a Kd of 2.39 nM, a koff of 0.000603 s⁻¹ and a kon of 252000 M⁻¹ s⁻¹.
